Results on six molecules are retold here after publication PMC3215713, “Probing the Limits of Aptamer Affinity with a Microfluidic SELEX Platform”.

One series concerns the target thrombin (UniProt P00734;P00734 315-363;364-622). Description: bead-based fluorescence; PDGF-BB and ApoE: PBS pH 7.4, 1 mM MgCl2, 0.025% Tween 20; thrombin: 50 mM Tris pH 7.5, 100 mM NaCl, 1 mM MgCl2, 5 mM KCl, 1 mM CaCl2, 0.025% Tween 20; 1 h, roo.
Series [1] addresses T1, Bovine serum albumin (Bos taurus (Bovine), UniProt P02769 25-607). The series is described as follows: pulldown; PBS pH 7.4, 1 mM MgCl2, 0.025% Tween 20, RT. The note with it: label: 5'-Alexa Fluor 488.
For series [2], the target named is T1, Bovine serum albumin. Description: pulldown; 50 mM Tris pH 7.5, 100 mM NaCl, 1 mM MgCl2, 5 mM KCl, 1 mM CaCl2, 0.025% Tween 20, RT. The note with it: label: 5'-Alexa Fluor 488.
For series [3], the target named is PDGF-BB (platelet-derived growth factor BB) (UniProt P01127 82-190). Description: bead-based fluorescence; PDGF-BB and ApoE: PBS pH 7.4, 1 mM MgCl2, 0.025% Tween 20; thrombin: 50 mM Tris pH 7.5, 100 mM NaCl, 1 mM MgCl2, 5 mM KCl, 1 mM CaCl2, 0.025% Tween 20; 1 h, room temperature. The note with it: protein: commercial; chain copies: 2; label: 5'-FAM.
Sequence of PDGF-BB (platelet-derived growth factor BB) (P01127 82-190): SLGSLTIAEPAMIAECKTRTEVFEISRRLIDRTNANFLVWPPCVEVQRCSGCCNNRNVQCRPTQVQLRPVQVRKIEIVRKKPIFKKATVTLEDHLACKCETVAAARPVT

T1 sequence (P02769 25-607): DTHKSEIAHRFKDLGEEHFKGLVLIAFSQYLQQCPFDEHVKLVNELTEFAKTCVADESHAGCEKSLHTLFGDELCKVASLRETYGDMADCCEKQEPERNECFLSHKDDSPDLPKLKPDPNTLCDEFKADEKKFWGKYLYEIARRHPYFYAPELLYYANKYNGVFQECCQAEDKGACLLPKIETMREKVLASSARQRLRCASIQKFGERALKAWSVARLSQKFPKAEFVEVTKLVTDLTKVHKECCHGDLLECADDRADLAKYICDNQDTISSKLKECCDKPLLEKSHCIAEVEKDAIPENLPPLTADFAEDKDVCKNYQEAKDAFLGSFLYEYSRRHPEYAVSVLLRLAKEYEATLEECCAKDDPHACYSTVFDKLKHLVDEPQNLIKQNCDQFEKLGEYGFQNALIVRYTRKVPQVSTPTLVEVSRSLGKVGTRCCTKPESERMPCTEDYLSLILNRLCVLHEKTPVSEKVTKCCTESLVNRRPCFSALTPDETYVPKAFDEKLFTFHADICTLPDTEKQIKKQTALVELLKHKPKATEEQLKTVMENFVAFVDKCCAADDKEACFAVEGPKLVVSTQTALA

A word on the Kd: it is the free concentration of one partner at which half of the binding sites on the other are occupied at equilibrium, for simple one-to-one binding. The low end stands for higher affinity, the high end for lower affinity. The molecule GGTTGGTGTGGTTGG (ssDNA) [Bock thrombin aptamer (consensus 15-mer)] registered a Kd with thrombin of 1.2 nM.
The same measure, in the same setting: in the case of AGTCCGTGGTAGGGCAGGTTGGGGTGACT (ssDNA) [Tasset thrombin aptamer 60-18[29]] it was 11.9 nM.

B1: PDGF-09 (ssDNA)
DNA: AGCAGCACAGAGGTCAGATGGAATCATGATCCCCCATGACCTGGGGGCGTTACTGGCGAGCATCATGAGAGATCGTGCGACCTATGCGTGCTACCGTGAA
On to B1, for which, in the series with Bovine serum albumin [1], the binding result is recorded as “no binding”.

B2: Thr-08 (ssDNA)
DNA: AGCAGCACAGAGGTCAGATGCAGCGCTAGGGCTTTTAGCGTAATGGGTAGGGTGGTGCGGTGCAGATATCGGAATTGGTGCCTATGCGTGCTACCGTGAA
Regarding B2, the binding result with Bovine serum albumin [2] is given as “no binding”.

B3: ApoE-06 (Ahmad 2011) (ssDNA)
DNA: AGCAGCACAGAGGTCAGATGACTAGCTACGGGGTGGGTGGGCGGTGTCAGTTTGTTTATTGGTGCTATACATCCTCTATACCTATGCGTGCTACCGTGAA
Regarding B3, the binding result with Bovine serum albumin [1] was “no binding”.
In series [3], CACAGGCTACGGCACGTAGAGCATCACCATGATCCTGTG (ssDNA) [Green PDGF aptamer 36t] returned a Kd of 0.12 nM.
